Patent US20200095340A1
Residue numbers refer to the chain shown, from its start. Names and notes keep the numbering of the source.

B1: anti-DLL3 trispecific protein, DLL3 binder 2E01 (protein, part only; not given: anti-CD3 and anti-albumin domains, part only)
chain, part: EVQLVESGGGLVQPGGSLTLSCVASGSTSSINAMGWYRRAPFKQGELPAGISPDGTKAYADSAKVRFTISRDNAKNSVYLQMNSLRAEDTAVYYCYYFHTVCGTSMGYWGQGTLVTVSSGGGGSGGGSGGGGSGGGSHHHHHH
B2: anti-DLL3 trispecific protein, DLL3 binder 4D011 (protein, part only; not given: CD3 binder and albumin binder, part only)
chain, part: EVQLVESGGGLVQPGGSLTLSCAASGSSVRFLSMAWYRQAPGKKRELVAGISVDGSTDYIDSVKGRFTISRDNAKNSVYLQMNSLRAEDTAVYYCYAYRWRTRYTYWGQGTLVTVSSGGGGSGGGSGGGGSGGGSHHHHHH
B3: anti-DLL3 trispecific protein, DLL3 binder 4B07 (protein, part only; not given: anti-CD3 fragment and anti-albumin sdAb, part only)
chain, part: B2 chain, part with R30G, V53A, D58V, R101T
B4: anti-DLL3 trispecific protein, DLL3 binder 4H11-M34L (protein, part only; not given: anti-CD3 and anti-albumin domains, part only)
chain, part: B2 chain, part with R30S, F31R, M34L, R101T, Y104L
B5: anti-DLL3 trispecific protein, DLL3 binder 4E02 (protein, part only; not given: anti-CD3 and anti-albumin domains, part only)
chain, part: B2 chain, part with S28Q, R30S, V53A, D58V, R101S
B6: anti-DLL3 trispecific protein, DLL3 binder 3H011 (protein, part only; not given: CD3 binder and albumin binder, part only)
chain, part: B2 chain, part with R30K, V53A, D58V, R101P
B7: anti-DLL3 trispecific protein, DLL3 binder 4C06 (protein, part only; not given: anti-CD3 fragment and anti-albumin sdAb, part only)
chain, part: B2 chain, part with G26N, R30S, F31K, V53A, D58A, R101S
B8: anti-DLL3 trispecific protein, DLL3 binder 4H04 (protein, part only; not given: anti-CD3 fragment and anti-albumin sdAb, part only)
chain, part: B2 chain, part with R30K, I51V, V53A, R99E, R101T
B9: anti-DLL3 trispecific protein, DLL3 binder 3D07 (protein, part only; not given: anti-CD3 and anti-albumin domains, part only)
chain, part: B2 chain, part with V53A, R99S, R101T
B10: anti-DLL3 trispecific protein, DLL3 binder 3H06 (protein, part only; not given: CD3 fragment and albumin sdAb, part only)
chain, part: B2 chain, part with R30S, F31Q, V53A, I60F, R101T, Y104G
B11: anti-DLL3 trispecific protein, DLL3 binder 4B011 (protein, part only; not given: CD3 binder and albumin binder, part only)
chain, part: B2 chain, part with R30T, V53A, D58V, R101T, Y104G
B12: anti-DLL3 trispecific protein, DLL3 binder 2E010 (protein, part only; not given: anti-CD3 and anti-albumin domains, part only)
chain, part: EVQLVESGGGLVQPGGSLTLSCVASGSTSSINAMAWYRRAPGKQRELVAGISSDGSKVYADSVKGRFTISRDNAKNSVYLQMNSLRAEDTAVYYCYYFHTVSGSSMRYWGQGTLVTVSSGGGGSGGGSGGGGSGGGSHHHHHH
B13: anti-DLL3 trispecific protein, DLL3 binder 2E05-M106Q (protein, part only; not given: CD3 binder and albumin binder, part only)
chain, part: B12 chain, part with T28P, M34Y, A35G, A60S, H99R, M106Q, R107S
B14: anti-DLL3 trispecific protein, DLL3 binder 2A04 (protein, part only; not given: CD3 binder and albumin binder, part only)
chain, part: B12 chain, part with A60T, H99R, V101T
B15: anti-DLL3 trispecific protein, DLL3 binder 2E011 (protein, part only; not given: anti-CD3 fragment and anti-albumin sdAb, part only)
chain, part: B12 chain, part with M34I, A35G, K57S, H99R, T100R
B16: anti-DLL3 trispecific protein, DLL3 binder 2F11 (protein, part only; not given: anti-CD3 and anti-albumin domains, part only)
chain, part: B12 chain, part with T28V, A35G, A60K, H99R, R107G
B17: anti-DLL3 trispecific protein, DLL3 binder 1C03 (protein, part only; not given: CD3 fragment and albumin sdAb, part only)
chain, part: B12 chain, part with G55N, H99R, S102G
B18: anti-DLL3 trispecific protein, DLL3 binder 2C04 (protein, part only; not given: CD3 fragment and albumin sdAb, part only)
chain, part: B12 chain, part with I31R, A35G, V58L, H99R, S102L
B19: anti-DLL3 trispecific protein, DLL3 binder 4D02 (protein, part only; not given: CD3 fragment and albumin sdAb, part only)
chain, part: B2 chain, part with S28K, R30S, V53A, D54R, R99Q, R101T
B20: anti-DLL3 trispecific protein, DLL3 binder 3E03 (protein, part only; not given: CD3 binder and albumin binder, part only)
chain, part: B2 chain, part with V53G, R101M
B21: anti-DLL3 trispecific protein, DLL3 binder 4H05 (protein, part only; not given: anti-CD3 fragment and anti-albumin sdAb, part only)
chain, part: B2 chain, part with R30S, F31R, V53A, D54R, R101T, Y104S
B22: anti-DLL3 trispecific protein, DLL3 binder 4A08 (protein, part only; not given: CD3 binder and albumin binder, part only)
chain, part: B2 chain, part with R30S, V53A, D58N
B23: anti-DLL3 trispecific protein, DLL3 binder 4G03 (protein, part only; not given: CD3 binder and albumin binder, part only)
chain, part: B2 chain, part with R30K, V53A, D61H, R101T, T102R
B24: anti-DLL3 trispecific protein, DLL3 binder 3B09 (protein, part only; not given: CD3 binder and albumin binder, part only)
chain, part: B2 chain, part with S28H, R30S, V53A, D54N, R101T, T105A
B25: anti-DLL3 trispecific protein, DLL3 binder 3G02 (protein, part only; not given: CD3 binder and albumin binder, part only)
chain, part: B2 chain, part with R30S, V53A, S56R
B26: anti-DLL3 trispecific protein, DLL3 binder 4B05 (protein, part only; not given: anti-CD3 fragment and anti-albumin domain, part only)
chain, part: B2 chain, part with S28R, R30S, V53A, S56H, R101T, Y106H
B27: anti-DLL3 trispecific protein, DLL3 binder 4A04 (protein, part only; not given: CD3 binder and albumin binder, part only)
chain, part: B2 chain, part with S28R, R30S, V53A, D54R, R101S
B28: anti-DLL3 trispecific protein, DLL3 binder 3D09 (protein, part only; not given: anti-CD3 fragment and anti-albumin domain, part only)
chain, part: B2 chain, part with R30S, F31R, V53A, D54N, D58T, R101T, T105R
B29: anti-DLL3 trispecific protein, DLL3 binder 4D03 (protein, part only; not given: anti-CD3 fragment and anti-albumin domain, part only)
chain, part: B2 chain, part with V53A, D54T, R101T, T102R
B30: anti-DLL3 trispecific protein, DLL3 binder 4H01 (protein, part only; not given: CD3 binder and albumin binder, part only)
chain, part: B2 chain, part with R30S, V53A, D54N, I60Y
B31: anti-DLL3 trispecific protein, DLL3 binder 4H06 (protein, part only; not given: anti-CD3 and anti-albumin domains, part only)
chain, part: B2 chain, part with S27R, R30S, V53A, D58I, R101T
B32: anti-DLL3 trispecific protein, DLL3 binder 3B04 (protein, part only; not given: CD3 binder and albumin binder, part only)
chain, part: B2 chain, part with S28N, R30S, V53A, D54R, R99H, R101T
B33: anti-DLL3 trispecific protein, DLL3 binder 4G07 (protein, part only; not given: anti-CD3 fragment and anti-albumin domain, part only)
chain, part: B2 chain, part with R30S, M34V, V53A, D54N, R101T, T102N
B34: anti-DLL3 trispecific protein, DLL3 binder 2H08 (protein, part only; not given: anti-CD3 fragment and anti-albumin domain, part only)
chain, part: B12 chain, part with A35G, V48A, S53K, V63A, H99R, M106S
B35: anti-DLL3 trispecific protein, DLL3 binder 1G06 (protein, part only; not given: anti-CD3 fragment and anti-albumin sdAb, part only)
chain, part: B12 chain, part with M34I, A35G, D61V, H99R, T100K, M106A
B36: anti-DLL3 trispecific protein, DLL3 binder 1C08 (protein, part only; not given: CD3 fragment and albumin sdAb, part only)
chain, part: B12 chain, part with S30R, A35G, V48P, D61V, H99R, S105P
B37: anti-DLL3 trispecific protein, DLL3 binder 1F09 (protein, part only; not given: CD3 binder and albumin binder, part only)
chain, part: B12 chain, part with S27N, A35G, D54N, H99R, S102T
B38: anti-DLL3 trispecific protein, DLL3 binder 2F08 (protein, part only; not given: anti-CD3 fragment and anti-albumin domain, part only)
chain, part: B1 chain, part with T28K, F42G, G45R, P53S, D54N, A58V, H99R, C102L, G107R
B39: anti-DLL3 trispecific protein, DLL3 binder 1F08 (protein, part only; not given: anti-CD3 fragment and anti-albumin sdAb, part only)
chain, part: B12 chain, part with A60K, H99R, T100N

The binders below were run against human DLL3 on DMS-153 cells (human) (UniProt Q9NYJ7) (assay: cell-based or functional assay).
Chain of human DLL3 on DMS-153 cells (human) (Q9NYJ7 27-618 limits assumed): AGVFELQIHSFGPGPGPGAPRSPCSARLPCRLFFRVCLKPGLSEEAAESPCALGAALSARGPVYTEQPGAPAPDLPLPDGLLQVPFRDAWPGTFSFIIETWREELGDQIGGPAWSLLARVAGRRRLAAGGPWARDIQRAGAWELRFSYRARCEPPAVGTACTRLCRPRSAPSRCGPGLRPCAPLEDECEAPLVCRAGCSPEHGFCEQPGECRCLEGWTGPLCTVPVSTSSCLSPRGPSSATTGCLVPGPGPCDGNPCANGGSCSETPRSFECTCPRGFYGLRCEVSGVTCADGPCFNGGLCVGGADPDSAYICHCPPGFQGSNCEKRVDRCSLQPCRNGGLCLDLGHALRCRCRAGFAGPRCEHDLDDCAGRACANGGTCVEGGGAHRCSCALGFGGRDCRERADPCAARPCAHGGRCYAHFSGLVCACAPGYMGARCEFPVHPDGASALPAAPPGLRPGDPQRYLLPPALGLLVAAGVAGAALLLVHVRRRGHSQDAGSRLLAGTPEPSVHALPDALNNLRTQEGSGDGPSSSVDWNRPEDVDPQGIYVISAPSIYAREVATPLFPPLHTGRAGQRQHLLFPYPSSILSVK

Row | Binder | DMS-153 TDCC EC50 (conditioned medium, human T cells) [nM] | TDCC EC50 (CHO expressed, purified protein; method of Example 2, DMS-153 cells) [nM]
1 | B1 | 0.033 | –
2 | B2 | – | 0.098
3 | B3 | 0.067 | –
4 | B4 | – | 0.13
5 | B5 | 0.041 | –
6 | B6 | 0.12 | –
7 | B7 | 0.068 | –
8 | B8 | 0.051 | –
9 | B9 | 0.061 | –
10 | B10 | 0.12 | –
11 | B11 | 0.048 | –
12 | B12 | 0.031 | –
13 | B13 | – | 0.041
14 | B14 | 0.081 | –
15 | B15 | 0.19 | –
16 | B16 | 0.049 | –
17 | B17 | 0.096 | –
18 | B18 | – | 0.043

These binders were tested against biotinylated human DLL3 protein expressed as a human IgG1 fusion protein (human) (UniProt Q9NYJ7) (assay: Octet, biotinylated human DLL3-IgG1 fusion on streptavidin tips, single 50 nM, conditioned medium (relative KD)).
Chain of biotinylated human DLL3 protein expressed as a human IgG1 fusion protein (human) (Q9NYJ7 27-492): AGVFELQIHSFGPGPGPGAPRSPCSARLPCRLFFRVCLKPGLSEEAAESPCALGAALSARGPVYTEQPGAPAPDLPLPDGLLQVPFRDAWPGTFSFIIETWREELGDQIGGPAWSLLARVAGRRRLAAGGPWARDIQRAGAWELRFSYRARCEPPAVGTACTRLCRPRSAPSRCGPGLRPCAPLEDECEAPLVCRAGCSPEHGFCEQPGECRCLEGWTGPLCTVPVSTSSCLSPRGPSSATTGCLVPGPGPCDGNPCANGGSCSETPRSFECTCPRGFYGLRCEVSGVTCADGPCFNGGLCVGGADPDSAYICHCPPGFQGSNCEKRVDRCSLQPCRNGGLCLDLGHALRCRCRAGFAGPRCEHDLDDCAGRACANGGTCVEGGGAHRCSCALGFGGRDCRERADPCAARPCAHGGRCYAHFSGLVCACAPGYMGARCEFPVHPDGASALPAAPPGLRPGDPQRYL

Row | Binder | Kd [nM]
19 | B19 | 30
20 | B20 | 20
21 | B21 | 64
22 | B22 | 24
23 | B23 | 20
24 | B24 | 20
25 | B25 | 20
26 | B26 | 18
27 | B27 | 35
28 | B28 | 32
29 | B29 | 26
30 | B30 | 21
31 | B31 | 18
32 | B32 | 24
33 | B33 | 18
34 | B34 | 18
35 | B35 | 26
36 | B36 | 25
37 | B37 | 35
38 | B38 | 20
39 | B39 | 31
